According to US20150010920:

Columns and labels:
[1] = system: EGFP-cas3-1 (also called EGFP-EF172cas)
[2] = system: EGFP-T/C1 (EGFP-E-III-F-172)
[3] = system: EGFP-Thr1 (EGFP-E-III-F-N188R)
[4] = system: EGFP-Thr1e (EGFP-E-III-F-FNPRGF)
[5] = system: EGFP-Thr1f (EGFP-E-III-F-FNPRSF)

active caspase-3 was tested, and the “cleavage; 50 mM HEPES buffer with 10% sucrose” value [1] was “the cleavage effect was very weak and the cleavage reaction slow”.
In the case of thrombin, the “optical change / cleavage (absorbance at 397 nm, SDS-PAGE, MALDI-MS)” value [2] is reported as “this sensor was not cleaved by thrombin and protease type X”, the Km (µM); 50 mM Tris, 150 mM NaCl, 2.5 mM CaCl2, pH 8.0 [3] is reported as 20.9 µM and the kcat (s^-1); 50 mM Tris, 150 mM NaCl, 2.5 mM CaCl2, pH 8.0 [3] is reported as 0.057 s⁻¹. For the same substance, the kcat/Km (M^-1 s^-1); 50 mM Tris, 150 mM NaCl, 2.5 mM CaCl2, pH 8.0 [3] was 2770 M⁻¹ s⁻¹, the Km (µM); 50 mM Tris, 150 mM NaCl, 2.5 mM CaCl2, pH 8.0 [4] was 2.81 µM and the “fold change in Km compared to the thrombin sensor with cleavage linker (Gly-Arg-Gly)” value [4] was “Km has great decrease with 10 folds”. The “fold change in kcat compared to the thrombin sensor with cleavage linker (Gly-Arg-Gly)” value [4] was “kcat, has significant increase with 5 folds”, the “fold change in kcat/Km compared to the thrombin sensor with cleavage linker (Gly-Arg-Gly)” value [4] was “substrate specificity (kcat/Km) of these four thrombin sensor variants is resulted in 50-fold increase” and the kcat (s^-1); 50 mM Tris, 150 mM NaCl, 2.5 mM CaCl2, pH 8.0 [4] was 0.29 s⁻¹. For the same substance, the kcat/Km (M^-1 s^-1); 50 mM Tris, 150 mM NaCl, 2.5 mM CaCl2, pH 8.0 [4] was 105000 M⁻¹ s⁻¹, the Km (µM); 50 mM Tris, 150 mM NaCl, 2.5 mM CaCl2, pH 8.0 [5] was 2.86 µM and the “fold change in Km compared to the thrombin sensor with cleavage linker (Gly-Arg-Gly)” value [5] was “Km has great decrease with 10 folds”. For the same substance, the “fold change in kcat compared to the thrombin sensor with cleavage linker (Gly-Arg-Gly)” value [5] was “kcat, has significant increase with 5 folds”, the “fold change in kcat/Km compared to the thrombin sensor with cleavage linker (Gly-Arg-Gly)” value [5] was “substrate specificity (kcat/Km) of these four thrombin sensor variants is resulted in 50-fold increase” and the kcat (s^-1); 50 mM Tris, 150 mM NaCl, 2.5 mM CaCl2, pH 8.0 [5] was 0.23 s⁻¹. For the same substance, the kcat/Km (M^-1 s^-1); 50 mM Tris, 150 mM NaCl, 2.5 mM CaCl2, pH 8.0 [5] was 80200 M⁻¹ s⁻¹.
